Measurements taken from US20050080013A1 (Pfizer, published 2005).
Non-standard residues stand in square brackets, D forms with d. No end group written: not given here. *: point of attachment. Nal = naphthylalanine (isomer not specified); Dansyl = CN(C)c1cccc2c(S(=O)(=O)*)cccc12; Aib = CC(C)(N)C(=O)O

T1: lecithin:cholesterol acyltransferase (LCAT), purified from human plasma (human, UniProt P04180 25-440)
T1 sequence (looked up): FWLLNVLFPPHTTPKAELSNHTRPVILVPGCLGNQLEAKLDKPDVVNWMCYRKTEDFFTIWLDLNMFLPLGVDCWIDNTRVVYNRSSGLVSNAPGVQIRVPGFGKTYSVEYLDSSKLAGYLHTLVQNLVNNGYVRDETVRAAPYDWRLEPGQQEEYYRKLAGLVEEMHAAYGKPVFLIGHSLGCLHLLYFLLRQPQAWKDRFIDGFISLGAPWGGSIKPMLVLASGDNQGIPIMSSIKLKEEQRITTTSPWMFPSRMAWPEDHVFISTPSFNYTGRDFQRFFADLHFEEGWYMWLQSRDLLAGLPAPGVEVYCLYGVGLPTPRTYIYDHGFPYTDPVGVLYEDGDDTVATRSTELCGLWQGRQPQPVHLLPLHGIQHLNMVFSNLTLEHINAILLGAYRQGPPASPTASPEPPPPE


biological target: T1, lecithin:cholesterol acyltransferase …; experiment: cell-based or functional assay

| Binder | ACTIVITY (%) LCAT |
| --- | --- |
| [dP][dV][dL][dD][dE][dF][dR][dE][dK][dL][dN][dE][Aib][dL][dE][dA][dL][dK][dQ][dK][dL][dK] [peptide 44] | 25% |
| PVLDLFLELLNE[Aib]LEALKQKLK [peptide 31] | 34% |
| PVLDEFREKLNE[Aib]LEALKQKLK [peptide 45] | 24% |
| PLLELLKELLQELLEALKQKLK [peptide 36] | 31% |
| PVLDLFRELLNELLEALKQKLK [peptide 4] | 93% |
| PVLDLFRELLNELLEGLKQKLK [peptide 22] | 54% |
| XVLDLFRELLNELLEALKQKLKK (D-Pro (p) at 1) [peptide 5] | 90% |
| PVLDLFRELLNEL[Nal]EALKQKLK (not fully specified) [peptide 27] | 44% |
| PVLDEFREKLWE[Aib]LEALKQKLK [peptide 43] | 25% |
| PVLDLFRELLNELLEWLKQKLK [peptide 3] | 98% |
| VLDLFRELLNEGLEALKQKLK [peptide 47] | 23% |
| PVLDLWRELLNE[Aib]LEALKQKLK [peptide 41] | 25% |
| XVLDLFRELLNELLEALKQKLK (D-Pro (p) at 1) [peptide 21] | 57% |
| PVLDLFRELLNELLEALQKKLK [peptide 24] | 53% |
| PVLDWFRELLNELLEALKQKLK [peptide 35] | 31% |
| AVLDLFRELLNELLEALKQKLK [peptide 29] | 39% |

| Binder | ACTIVITY (%) LCAT |
| --- | --- |
| PLLELFKELLQELLEALKQKLK [peptide 23] | 54% |
| PVLDLFREGLNELLEALKQKLK [peptide 20] | 57% |
| PVLDLFRELLNELWEALKQKLK [peptide 28] | 40% |
| PVLDLFRELLNELLELLKQKLK [peptide 26] | 47% |
| [Aib]VLDLFRELLNELLEALKQKLK [peptide 32] | 33% |
| PVLD[Nal]FRELLNELLEALKQKLK (not fully specified) [peptide 34] | 32% |
| PVLDFFRELLNE[Aib]LEALKQKLK [peptide 25] | 51% |
| PVLDLFREWLNELLEALKQKLK [peptide 37] | 29% |
| PVLDEFREKLNE[Aib]WEALKQKLK [peptide 42] | 25% |
| PVLDLFRELLNE[Aib]LEAWKQKLK [peptide 38] | 29% |
| Dansyl-PVLDLFRELLNELLEALKQKLK [peptide 30] | 38% |
| XXLDLFRELLNELLEALKQKLK (D-Pro (p) at 1, D-Val (v) at 2) [peptide 48] | 22% |
| PVLDLFREKLNELLEALKQKLK [peptide 33] | 33% |
| PVLDLFREKLNE[Aib]LEALKQKLK [peptide 46] | 23% |
| PVLDLFNELLRELLEALQKKLK [peptide 40] | 25% |
| PVLDLFRELLEELLKALKKKLK [peptide 39] | 25% |

Further lines, results first:

| ACTIVITY (%) LCAT | Binder |
| --- | --- |
| 4% | DWLKAFYDKVFEKFKEFF [peptide 245] |
| 5% | DWLKAFYDKVAEKLKEAF [peptide 244] |
| 11% | Ac-EWLEAFYKKVLEKLKELF-NH2 [peptide 239] |
| 0% | Ac-PVLDLFREGLEELKQKLK-NH2 [peptide 228] |
| 21% | PVLDLFRELLWE[Aib]LEALKQKLK [peptide 50] |
| 5% | DWFKAFYDKVAEKFKEAF [peptide 243] |
| 3% | DWFKAFYDKFFEKFKEFF [peptide 247] |
| 4% | EWLEAFYKKVLEKLKELF [peptide 246] |
| 8% | DWFKAFYDKVFEKFKEFF [peptide 241] |
| 0% | Ac-PVLDLFRELLEEGKQKLK-NH2 [peptide 229] |
| 19% | Ac-EWLKAFYEKVLEKLKELF-NH2 [peptide 238] |
| 22% | PVLDLFRNLLEKLLEALEQKLK [peptide 49] |
| 10% | Ac-DWLKAFYDKVAEKLKEAF-NH2 [peptide 240] |
| 11% | LDDLLQKWAEAFNQLLKK [peptide 237] |
| 7% | GIKKFLGSIWKFIKAFVG [peptide 242] |
